Data reported in PMC6420652, “Developing a novel FRET assay, targeting the binding between Antizyme-AZIN” (Scientific Reports, 2019).
Residue numbers refer to the chain shown, from its start.

Assays:
Test in all cases: FRET or BRET; Clover fusion protein constant at 50 nM, mRuby2 fusion of antizyme titrated; TBS pH 7.4 + 0.15% Tween-20, 1 hour at room temperature; plate reader, fit of donor quenching
Conditions in all cases: both partners purified
[1] = target: T1, ODC-Clover fusion protein (ornithine decarboxylase), wild type (human, UniProt P11926 1-461)
T1 construct: human ornithine decarboxylase (hODC1); The legend says 'ODC-Clover fusion proteins'; the methods speak of N-terminal fluorescent fusion proteins of hODC1, so Clover is probably N-terminal; also called hODC1; source: bacterial expression vector (pBAD), purified recombinant protein
T1 sequence (looked up): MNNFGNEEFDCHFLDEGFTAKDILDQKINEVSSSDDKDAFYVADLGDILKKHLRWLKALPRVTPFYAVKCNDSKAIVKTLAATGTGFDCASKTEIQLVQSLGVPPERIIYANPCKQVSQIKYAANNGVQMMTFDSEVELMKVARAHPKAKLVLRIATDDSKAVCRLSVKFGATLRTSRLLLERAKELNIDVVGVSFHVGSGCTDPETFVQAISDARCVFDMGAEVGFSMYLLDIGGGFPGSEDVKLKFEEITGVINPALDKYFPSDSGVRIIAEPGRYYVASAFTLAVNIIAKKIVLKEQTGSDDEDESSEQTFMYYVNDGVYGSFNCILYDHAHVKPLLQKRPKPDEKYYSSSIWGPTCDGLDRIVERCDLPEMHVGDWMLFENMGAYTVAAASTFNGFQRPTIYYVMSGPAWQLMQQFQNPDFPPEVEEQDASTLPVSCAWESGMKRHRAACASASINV

[2] = target: T2, Clover-AZIN (antizyme inhibitor with an N-terminal Clover tag) (human, UniProt O14977 1-448)
T2 construct: The vector has a TEV protease site after the His tag; also called hAZIN1; source: bacterial expression vector (pBAD), purified recombinant protein; not shown: Clover, N-terminal, kept
T2 sequence (looked up): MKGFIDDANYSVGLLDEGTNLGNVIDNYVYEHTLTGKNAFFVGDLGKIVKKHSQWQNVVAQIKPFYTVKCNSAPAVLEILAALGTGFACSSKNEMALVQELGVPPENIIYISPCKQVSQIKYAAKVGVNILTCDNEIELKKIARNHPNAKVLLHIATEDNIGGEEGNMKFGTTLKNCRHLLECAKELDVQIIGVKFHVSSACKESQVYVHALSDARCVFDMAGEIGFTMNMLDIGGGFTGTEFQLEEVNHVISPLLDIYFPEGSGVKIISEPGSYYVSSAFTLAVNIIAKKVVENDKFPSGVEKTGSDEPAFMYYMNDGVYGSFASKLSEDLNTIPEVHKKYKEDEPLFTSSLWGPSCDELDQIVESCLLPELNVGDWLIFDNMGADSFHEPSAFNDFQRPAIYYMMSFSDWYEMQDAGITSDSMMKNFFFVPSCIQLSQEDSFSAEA

[3] = target: T3, ODC-N327A (Clover fusion protein) (human, UniProt P11926 1-461, N327A)
T3 construct: human ornithine decarboxylase (hODC1) with N327A; As m5 with the point mutation; source: bacterial expression vector (pBAD), purified recombinant protein
T3 sequence (looked up): T1 sequence (looked up) with N327A

[4] = target: T4, ODC-Y331S (Clover fusion protein) (human, UniProt P11926 1-461, Y331S)
T4 construct: human ornithine decarboxylase (hODC1) with Y331S; As m5 with the point mutation; source: bacterial expression vector (pBAD), purified recombinant protein
T4 sequence (looked up): T1 sequence (looked up) with Y331S

- Kd [1]: 508 nM
- Kd [2]: 22 nM
- Kd [3]: 192 nM
- Kd [4]: 277 nM
B1: antizyme-mRuby2 (antizyme with a C-terminal mRuby2 tag) (natural protein)
chain: not shown
notes: human antizyme 1 (OAZ1), codon-optimized synthetic gene; An HRV 3C protease site lies between antizyme and mRuby2 (used for the cleavage control); also called AZ-mRuby2; AZ; source: bacterial expression vector (pBAD), gene codon optimized for E. coli, purified recombinant protein; not shown: mRuby2, C-terminal, kept
